Assays:
[1] = biological target: T1, native PcrV on live Pseudomonas aeruginosa (strains O6-57/66, O11-PA103, O1-52/66, O16-177/81) (Pseudomonas aeruginosa); assay: cell-based or functional assay
[2] = biological target: T1, native PcrV on live Pseudomonas …; assay: cell-based or functional assay; remark: listed apart in the source
[3] = biological target: T2, recombinant Pseudomonas aeruginosa PcrV, full-length (PAO), His-tagged (Pseudomonas aeruginosa); assay: BLI
[4] = biological target: T1, native PcrV on live Pseudomonas …; assay: cell-based or functional assay; remark: listed apart in the source
[5] = biological target: T2, recombinant Pseudomonas aeruginosa …; assay: SPR (BIACORE)
[6] = biological target: T2, recombinant Pseudomonas aeruginosa …; assay: ELISA, PcrV coated on the plate, goat anti-human Fc-AP detection
[7] = biological target: T1, native PcrV on live Pseudomonas …; assay: cell-based or functional assay; remark: listed apart in the source

B1: 8C1 (antibody, V domains shown)
VH: EVQLLESGGGLVQPGGSLRLSCTASGFTFSDNHMSWVRQAPGKGLDWVSGISESGGSTNYADSVKGRFSTSRDNSKSTLYLDMNSLRAEDTAIYYCAKGRFSTNSAHFFRAVYGMDVWGQGTAVTVSS
VL: DIQLTQSPSSLSASVGDRVTITCRASQGISSYLAWYQQKPGKAPKLLIYAASTLQSGVPSRFSGSGSGTDFTLTISSLQPEDFATYYCQQLSSYPLTFGGGTKVEIK
notes: also called optimized anti-PcrV mAb clone 8C1
[1]
  RBC lysis assay IC50 (P. aeruginosa strain 57/66(O6)): 0.12 µg/mL
[2]
  A549 cytotoxicity assay IC50 (P. aeruginosa strain PA103(O11)): 1.94 µg/mL
[3]
  Kd: 0.33 nM
[4]
  RBC lysis Average IC50 over the three strains: 0.266 µg/mL
  RBC lysis IC50, strain O1-52/66: 0.424 µg/mL
  RBC lysis IC50, strain O6-57/66: 0.121 µg/mL
  RBC lysis IC50, strain O16-177/81: 0.252 µg/mL
[5]
  Kd: 0.0316 nM
[6]
  EC50: 0.111 µg/mL
[7]
  A549 cell lysis Average IC50 over the strains: 1.05 µg/mL
  A549 cell lysis IC50, strain O6-57/66: 0.721 µg/mL
  A549 cell lysis IC50, strain O11-PA103: 1.54 µg/mL
  A549 cell lysis IC50, strain O16-177/81: 0.881 µg/mL

Source: patent US20220289830A1 (STAIDSON BEIJING BIOPHARMACEUTICALS, published 2022)
